Experimental data from the supplement of paper PMC10065799, “High-throughput profiling of sequence recognition by tyrosine kinases and SH2 domains using bacterial peptide display” (eLife, 2023).

Assays:
Grb2 SH2 = Grb2 SH2 (UniProt P62993); experiment: SH2 binding enrichment of the phosphorylated peptide, bacterial display (enrichment ratio); higher = better substrate or ligand; peptides without Tyr show the background
c-Src SH2 = experiment: as above
SHP2-C SH2 = experiment: as above
EPHB2 = EPHB2 (UniProt P29323); experiment: phosphorylation enrichment, bacterial display (enrichment ratio); higher = better substrate or ligand; peptides without Tyr show the background
EPHB2, sequence (P29323 whole entry, looked up): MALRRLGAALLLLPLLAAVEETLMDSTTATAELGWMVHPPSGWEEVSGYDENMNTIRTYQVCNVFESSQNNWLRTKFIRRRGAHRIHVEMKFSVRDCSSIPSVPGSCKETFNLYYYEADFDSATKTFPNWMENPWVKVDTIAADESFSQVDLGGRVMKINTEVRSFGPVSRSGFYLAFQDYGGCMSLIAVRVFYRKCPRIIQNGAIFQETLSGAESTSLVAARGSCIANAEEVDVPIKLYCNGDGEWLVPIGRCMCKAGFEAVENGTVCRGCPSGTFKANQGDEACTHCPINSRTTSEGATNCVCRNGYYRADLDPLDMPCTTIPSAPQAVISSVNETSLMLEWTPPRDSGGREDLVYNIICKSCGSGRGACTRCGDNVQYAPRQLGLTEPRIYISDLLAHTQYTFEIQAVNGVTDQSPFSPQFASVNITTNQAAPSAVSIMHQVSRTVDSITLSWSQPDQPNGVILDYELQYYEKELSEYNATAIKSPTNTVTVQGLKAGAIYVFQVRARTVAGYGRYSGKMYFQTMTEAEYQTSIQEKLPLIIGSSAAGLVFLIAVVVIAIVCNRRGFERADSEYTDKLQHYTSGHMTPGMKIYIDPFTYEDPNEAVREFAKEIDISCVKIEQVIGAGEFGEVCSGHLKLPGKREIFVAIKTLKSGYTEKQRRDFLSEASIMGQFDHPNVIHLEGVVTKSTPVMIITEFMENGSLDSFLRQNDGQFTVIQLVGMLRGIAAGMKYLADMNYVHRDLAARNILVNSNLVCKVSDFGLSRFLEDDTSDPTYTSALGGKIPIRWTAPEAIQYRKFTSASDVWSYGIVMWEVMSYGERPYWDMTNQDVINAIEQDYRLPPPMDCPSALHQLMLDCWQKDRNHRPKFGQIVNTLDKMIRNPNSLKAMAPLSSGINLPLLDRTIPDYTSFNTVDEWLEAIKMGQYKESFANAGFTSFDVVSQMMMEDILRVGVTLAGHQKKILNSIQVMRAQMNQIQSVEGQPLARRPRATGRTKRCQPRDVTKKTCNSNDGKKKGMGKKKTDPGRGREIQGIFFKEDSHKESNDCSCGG

EPHB1 = EPHB1 (UniProt P54762); experiment: as above
FGFR3 = FGFR3 (UniProt P22607); experiment: as above
FGFR3, sequence (P22607 whole entry, looked up): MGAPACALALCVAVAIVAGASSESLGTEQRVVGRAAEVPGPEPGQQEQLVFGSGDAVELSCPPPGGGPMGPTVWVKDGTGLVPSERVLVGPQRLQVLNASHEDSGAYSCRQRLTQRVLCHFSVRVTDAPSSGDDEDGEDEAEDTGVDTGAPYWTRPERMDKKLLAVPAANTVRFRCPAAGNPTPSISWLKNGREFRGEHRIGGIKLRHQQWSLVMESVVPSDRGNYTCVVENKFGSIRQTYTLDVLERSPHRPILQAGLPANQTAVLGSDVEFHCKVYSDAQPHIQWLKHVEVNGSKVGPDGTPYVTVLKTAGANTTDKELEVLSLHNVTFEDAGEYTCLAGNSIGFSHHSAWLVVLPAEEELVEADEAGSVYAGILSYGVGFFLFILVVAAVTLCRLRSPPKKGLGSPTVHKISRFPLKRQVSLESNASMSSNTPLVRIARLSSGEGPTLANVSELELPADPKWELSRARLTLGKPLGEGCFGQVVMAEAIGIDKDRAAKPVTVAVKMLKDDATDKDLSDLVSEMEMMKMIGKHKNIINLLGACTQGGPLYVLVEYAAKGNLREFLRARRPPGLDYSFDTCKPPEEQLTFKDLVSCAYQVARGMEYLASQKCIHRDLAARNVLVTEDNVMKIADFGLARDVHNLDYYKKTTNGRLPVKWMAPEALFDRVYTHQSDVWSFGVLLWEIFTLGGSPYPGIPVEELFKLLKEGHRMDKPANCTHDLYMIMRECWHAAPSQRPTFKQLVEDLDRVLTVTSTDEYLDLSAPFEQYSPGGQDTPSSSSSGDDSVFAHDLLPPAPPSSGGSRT

MERTK = MERTK (UniProt Q12866); experiment: as above
MERTK, sequence (Q12866 whole entry, looked up): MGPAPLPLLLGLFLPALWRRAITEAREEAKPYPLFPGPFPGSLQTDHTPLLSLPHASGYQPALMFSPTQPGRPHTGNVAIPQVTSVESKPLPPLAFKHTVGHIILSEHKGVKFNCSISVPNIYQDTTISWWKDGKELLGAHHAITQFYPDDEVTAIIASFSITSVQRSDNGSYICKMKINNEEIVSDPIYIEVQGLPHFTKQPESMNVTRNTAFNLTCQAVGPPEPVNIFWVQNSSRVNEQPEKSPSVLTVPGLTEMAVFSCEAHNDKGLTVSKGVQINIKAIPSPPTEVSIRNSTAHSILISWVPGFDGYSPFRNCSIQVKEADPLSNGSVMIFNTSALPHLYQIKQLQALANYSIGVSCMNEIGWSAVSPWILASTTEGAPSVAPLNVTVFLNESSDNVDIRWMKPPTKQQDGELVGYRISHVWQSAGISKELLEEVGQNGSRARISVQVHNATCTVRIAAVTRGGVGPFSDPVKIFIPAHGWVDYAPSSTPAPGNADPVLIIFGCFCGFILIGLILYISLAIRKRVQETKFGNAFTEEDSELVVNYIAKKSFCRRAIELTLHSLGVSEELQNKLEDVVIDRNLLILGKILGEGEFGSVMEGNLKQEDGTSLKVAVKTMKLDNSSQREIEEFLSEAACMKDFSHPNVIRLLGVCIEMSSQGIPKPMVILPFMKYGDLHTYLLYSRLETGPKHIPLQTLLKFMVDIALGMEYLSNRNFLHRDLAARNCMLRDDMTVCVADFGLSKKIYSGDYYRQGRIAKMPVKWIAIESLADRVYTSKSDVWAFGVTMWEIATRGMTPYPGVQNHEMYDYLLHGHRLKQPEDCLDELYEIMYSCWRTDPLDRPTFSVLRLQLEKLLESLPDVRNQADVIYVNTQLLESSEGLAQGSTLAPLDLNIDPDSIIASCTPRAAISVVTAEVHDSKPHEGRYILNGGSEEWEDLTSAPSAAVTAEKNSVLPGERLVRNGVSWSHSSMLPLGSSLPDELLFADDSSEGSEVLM

c-Src = experiment: as above
c-Abl (mouse) = experiment: as above
Hck = Hck (UniProt P08631); experiment: as above
Hck, sequence (P08631 whole entry, looked up): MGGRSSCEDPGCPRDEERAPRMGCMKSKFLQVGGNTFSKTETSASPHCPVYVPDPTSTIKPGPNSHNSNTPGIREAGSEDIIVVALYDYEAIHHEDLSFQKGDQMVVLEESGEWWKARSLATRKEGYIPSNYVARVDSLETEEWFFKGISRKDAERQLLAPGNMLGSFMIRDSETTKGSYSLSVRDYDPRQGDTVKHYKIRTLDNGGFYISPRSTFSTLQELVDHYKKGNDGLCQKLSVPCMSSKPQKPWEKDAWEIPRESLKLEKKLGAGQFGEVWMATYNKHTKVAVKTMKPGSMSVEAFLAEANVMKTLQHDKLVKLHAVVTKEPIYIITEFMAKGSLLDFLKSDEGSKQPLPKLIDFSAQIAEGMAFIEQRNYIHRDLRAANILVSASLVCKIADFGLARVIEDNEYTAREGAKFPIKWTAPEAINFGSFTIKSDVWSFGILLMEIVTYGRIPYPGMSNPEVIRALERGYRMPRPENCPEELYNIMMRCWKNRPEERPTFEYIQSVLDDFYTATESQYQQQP

Jak2 = Jak2 (UniProt O60674); experiment: as above
Jak2, sequence (O60674 whole entry, looked up): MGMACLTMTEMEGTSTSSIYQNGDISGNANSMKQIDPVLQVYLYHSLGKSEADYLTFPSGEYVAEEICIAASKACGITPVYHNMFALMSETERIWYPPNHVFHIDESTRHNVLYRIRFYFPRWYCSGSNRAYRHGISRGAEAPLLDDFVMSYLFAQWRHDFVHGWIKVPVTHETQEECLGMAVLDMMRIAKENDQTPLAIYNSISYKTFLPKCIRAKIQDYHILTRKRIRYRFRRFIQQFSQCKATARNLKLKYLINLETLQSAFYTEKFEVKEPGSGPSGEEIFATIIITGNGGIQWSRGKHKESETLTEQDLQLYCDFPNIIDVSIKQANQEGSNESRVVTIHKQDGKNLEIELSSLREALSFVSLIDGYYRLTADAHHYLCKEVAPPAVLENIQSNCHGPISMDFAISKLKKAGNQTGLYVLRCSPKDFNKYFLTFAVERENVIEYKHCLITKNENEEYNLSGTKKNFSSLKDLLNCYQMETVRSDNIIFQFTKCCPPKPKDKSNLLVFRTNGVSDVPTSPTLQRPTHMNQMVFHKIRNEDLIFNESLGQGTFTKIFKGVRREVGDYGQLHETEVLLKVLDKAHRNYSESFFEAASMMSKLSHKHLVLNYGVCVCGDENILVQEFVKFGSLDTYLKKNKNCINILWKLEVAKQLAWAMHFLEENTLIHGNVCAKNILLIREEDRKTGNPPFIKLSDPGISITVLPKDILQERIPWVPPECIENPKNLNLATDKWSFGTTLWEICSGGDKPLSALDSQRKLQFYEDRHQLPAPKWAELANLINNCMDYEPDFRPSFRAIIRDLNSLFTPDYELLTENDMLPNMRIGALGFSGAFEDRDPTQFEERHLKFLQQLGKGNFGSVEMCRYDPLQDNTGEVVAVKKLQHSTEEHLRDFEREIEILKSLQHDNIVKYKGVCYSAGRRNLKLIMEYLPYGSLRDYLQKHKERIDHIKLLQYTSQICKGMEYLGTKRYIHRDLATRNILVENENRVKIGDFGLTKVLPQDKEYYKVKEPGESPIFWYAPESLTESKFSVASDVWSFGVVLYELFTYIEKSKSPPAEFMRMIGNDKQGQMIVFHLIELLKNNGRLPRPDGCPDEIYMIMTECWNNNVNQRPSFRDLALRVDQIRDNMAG

Fes = Fes (UniProt P07332); experiment: as above
Fyn = Fyn (UniProt P06241); experiment: as above
Fyn, sequence (P06241 whole entry, looked up): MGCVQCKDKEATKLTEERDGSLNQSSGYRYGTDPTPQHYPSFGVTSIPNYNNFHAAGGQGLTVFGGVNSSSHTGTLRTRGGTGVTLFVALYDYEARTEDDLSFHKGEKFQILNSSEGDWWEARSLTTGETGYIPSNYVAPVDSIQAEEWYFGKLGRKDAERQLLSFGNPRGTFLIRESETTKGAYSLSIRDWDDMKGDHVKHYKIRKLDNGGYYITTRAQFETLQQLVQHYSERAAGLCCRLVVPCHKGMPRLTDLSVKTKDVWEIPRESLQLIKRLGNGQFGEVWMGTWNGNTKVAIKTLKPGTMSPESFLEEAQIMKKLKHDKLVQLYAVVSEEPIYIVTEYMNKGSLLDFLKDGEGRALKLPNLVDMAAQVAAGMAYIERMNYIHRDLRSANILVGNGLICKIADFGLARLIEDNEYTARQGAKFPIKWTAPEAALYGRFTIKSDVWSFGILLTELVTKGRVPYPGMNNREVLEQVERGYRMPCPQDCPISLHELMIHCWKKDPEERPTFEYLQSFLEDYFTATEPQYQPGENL

Fer (mouse) = experiment: as above
AncSZ = experiment: as above
FGFR1 = FGFR1 (UniProt P11362); experiment: as above
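Wherever SH2 binding enrichment of the phosphorylated peptide, bacterial display is given: peptide library displayed on the E. coli surface as eCPX fusions, selected cells deep-sequenced, score is each peptide's frequency after selection divided by its frequency in the input.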
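Wherever phosphorylation enrichment, bacterial display is given: 11-residue human phosphosite peptides and single-mutation variants displayed on the E. coli surface, counted by deep sequencing, each peptide's frequency after selection divided by its frequency in the unselected input library; frequency after pTyr selection over input frequency; kinase dosed for 20-30% of maximal phosphorylation in three min.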

| Sequence | SH2 binding enrichment (Grb2 SH2) | SH2 binding enrichment (c-Src SH2) | SH2 binding enrichment (SHP2-C SH2) | phosphorylation enrichment (EPHB2) | phosphorylation enrichment (EPHB1) | phosphorylation enrichment (FGFR3) | phosphorylation enrichment (MERTK) | phosphorylation enrichment (c-Src) | phosphorylation enrichment (c-Abl (mouse)) | phosphorylation enrichment (Hck) | phosphorylation enrichment (Jak2) | phosphorylation enrichment (Fes) | phosphorylation enrichment (Fyn) | phosphorylation enrichment (Fer (mouse)) | phosphorylation enrichment (AncSZ) | phosphorylation enrichment (FGFR1) |
| --- | --- | --- | --- | --- | --- | --- | --- | --- | --- | --- | --- | --- | --- | --- | --- | --- |
| FAADFYKLLGN [ROR2_Y646_YF] | 0.849 | 0.431 | 0.821 | 0.512 | 0.474 | 0.66 | 0.438 | 0.524 | 0.738 | 0.484 | 1.16 | 1.01 | 0.366 | 0.366 | 1.02 | 0.365 |
| FADIAYNFRDG [PAH_Y166_H170D_YF] | 0.953 | 0.424 | 0.58 | 0.476 | 0.446 | 0.613 | 0.47 | 0.583 | 0.551 | 0.464 | 0.654 | 0.892 | 0.534 | 0.473 | 0.695 | 0.41 |
| FARECYSALPQ [SARS2_Y52_G51C_YF] | 0.762 | 0.5 | 0.759 | 0.603 | 0.55 | 1.06 | 1.18 | 0.702 | 0.726 | 2.93 | 0.761 | 1.01 | 0.671 | 0.982 | 1.66 | 1.17 |
| FATAGYGSLEA [EPHA10_Y959_A956T] | 0.901 | 0.564 | 0.933 | 0.45 | 0.368 | 0.663 | 0.425 | 0.637 | 0.569 | 0.437 | 0.691 | 0.94 | 0.441 | 0.37 | 0.833 | 0.52 |
| FDGKDYIALNE [HLA-A_Y147_YF] | 0.785 | 0.557 | 0.807 | 0.704 | 0.628 | 0.68 | 0.382 | 0.386 | 0.654 | 0.6 | 0.898 | 1.06 | 0.7 | 0.496 | 1.21 | 0.601 |
| FEPWVYSLSFE [PRKDC_Y647_F649L_YF] | 0.88 | 0.471 | 0.742 | 1.26 | 0.607 | 0.839 | 1.35 | 6.52 | 0.672 | 4.58 | 1.34 | 1.45 | 7.08 | 1.41 | 1.27 | 0.598 |
| FFVVRYCWLRR [MPZ_Y181_YF] | 0.604 | 0.499 | 0.414 | 0.496 | 0.483 | 0.609 | 0.564 | 0.5 | 0.623 | 0.459 | 0.597 | 0.819 | 0.495 | 0.493 | 0.767 | 0.456 |
| FGVTLYPNSGE [MEP1A_Y472_R476G] | 0.9 | 0.588 | 0.851 | 0.726 | 0.597 | 0.714 | 0.341 | 0.473 | 0.794 | 0.574 | 1.23 | 1.12 | 0.481 | 0.54 | 1.28 | 0.524 |
